{"source": "the DeepSol protein solubility set", "data": [{"assay": "soluble on expression in E. coli; label from the status in PepcDB or PDB records", "values": [{"sequence": "MLNKTNTWTPSLFRDYKNAEHDACGIVSVMEKRKIPTKENIDLCIQSLVKMNHRAGFINGEGDGIGIHIDVPKALWNEKLKSSGYNPTIVDHPHFIVGHFFLNKNENIVDLKNHIRTQLNNENFAILFESDNVINSDALGPLGKQEEPLFWQVALIAENEVVNIEQTLFSVTIKIEENEAIHVASLSRDHVVYKVLGAGDTLVAYYNDLQHPLIASTMTLGHNRYSTNTLSNFFRVQPFSILGHNGEINTIAKLRDQAEMIHVPLTAGGSDSQDLNRTLETLLVQYGYSLFEAMDILFPPIINEIKLYETHLQDLYTYIREAWGHFAQGPAGIISRYKDEAVFSVDSLGLRPVWKVEIESSYIFSSEPGVVSPTEYVAEPKPLAPGEKVGLKWNEQDELVLYEHDDYQTQVYNRFKKKVDVTNYHLHLSIPKTKEIPDACDSMQVETKQYVAFGWDREHIQLLEQMATKGVEPIRSLGHDSPLAALDTDRRNIADFIKESVAVVTNPAIDRDREVEHFSTRTILGERPSLLSDAKKPFVVEMLSPIILEGSVAQSIAQELHTITYEQLIELFNTHSSIATISATFSQAETLQCALSRISSEAITAVNDGASLLLIDDADAHLNERLWIDPHLVTAKVHQVLSENKLRRNCSLVIRSGALRSLHDIVTLHGLGADSINPYLLFATVNDGTKTPITNLYNALNKGLEKVISTIGIHELRGYGRLYSSIGLHEEIANILQITNFLGSNDLAFSLESLAEDAQMRADDYNDPKVRIRKSFHIFPRIWKAIGDVAKGNSYDDYRDKLSELEENNPIAIRHLIQTKETKHVIPTEEVSISIQNHDLPFIISSMSFGSQNEIAFRAYAEAADQLNMISLNGEGGEIKDMIGKYPHTRGQQVASGRFGVNAELLNSSNLIEIKIGQGAKPGEGGHLPGSKVTAKIAEARNATIGSDLISPSNNHDIYSIEDLAQMITEIKTANQLAKVAVKVPVVPNIGTIAVGIAKAGADFINISGFDGGTGAARIHALQHVGLPVEIGVKAAHNALLEANMRHNVEIWADGGIRSVNDALKIMLLGANRIGFGTLSMIAIGCTTCRGCHLDTCHVGIATQIESEAQAKEHGLRRFVPRELESAVAGLLHLFTTFGEELKRLTGNLGYTNLQEIVGRSDLLEQVRGKNLLNLCNLLQTIEHPSVIKTEHVLEKQFEPIHSPHSKELVGVGVEQRVMGGLESCYRVRSKLYEDTKLEPLTLKYTNGSIPGNGLGAYNSENLFIHVNGGAQDGIGKTSFGGGIYITKAKGKDGLYYNGSVGKGFGYGAQKGALYVQGNADARAGIRLSGADMIIGGRMTKPLREKEQGNIGAYSNIKGFAFEYMTNGRALVLGDPGPWICAGMTGGVVYLRHDSSLGLTEQALKRRIAKGANVTLQPISKNGVRDVNELLLDYIRVLNEHEQYEEVALLTPLLDDMQQQFFEIIPKKEQADPSISTE", "soluble on expression in E. coli": "not soluble"}, {"sequence": "MNPLRSIQHNITTPPISGGQPLDAVGPQAQQSHPKRISPSQLSQSAHQALERLSANAEHQRLASLVRNALQDGTFQFQSSNHTQVTYKASICLPADTDTVRTDHLINNELTVQARLNDQSEYDIVSAHLHGSSKAISFDVPSPPPAHGSASSVLSERTHLGMSSVLSQDAVDSSSLETPLVSSPDHSRPPSQPKPVHIGSVRRDSGSLVSDNPVVQALLSFVQADQAFPPQAASIAGVQLEMRSRRDIEQALEELKGAFTVEKAQLMSGGSSSERVDEDVNADIHIPLLLKAIERGAGAFGPGALIEIADGGQISAKAFLASCAPTITSNDDVLSEFINQKLKGDDDLQVRLGAQELLHVATKKEFQLGGLAGSIGVSSILGSAWELGASELLKNAIFGKNFSPSQYALQLAGIDSVPPFIIEAMDSFCVLVIIKGMKGELWSMKDLLPKALKAGAISSAMSFPNNVLQYAGFKSRVADLAANSITTEAAIFGAASGIPPEVKESEELMRAGLFQSMKDGVMAHPGEGMDTKETIERMTRHALDIAPGESTAVKSMGLAAIVGMIPLIASSKATGLVSEQILRIFRNAVFNPIEAIALNALALGGRVNVPGLFDSDNAKHARVAQTILARASQHMEAGDREISAEELHQMLAPRSEFLRHVGSAIVNGMNASFEAIPALVRKLGYGEAPLAERIPYQDLAVPDTSRQPAP", "soluble on expression in E. coli": "not soluble"}, {"sequence": "GMNSNFSYPALGVDGISSQISPIRDVWSTNLQQEMNLIMSLIERYPVVSMDTEFPGVVARPLGVFKSSDDYHYQTLRANVDSLKIIQIGLALSDEEGNAPVEACTWQFNFTFNLQDDMYAPESIELLTKSGIDFKKHQEVGIEPADFAELLIGSGLVLQEEVTWITFHSGYDFAYLLKAMTQIPLPAEYEEFYKILCIYFPKNYDIKYIMKSVLNNSKGLQDIADDLQIHRIGPQHQAGSDALLTARIFFEIRSRYFDGSIDSRMLNQLYGLGSTGSVLWHNNSSTPQIQFRDLPGAHPSPTPSNAGIPTTLTNTSSAPNFANSTFRFPPRVV", "soluble on expression in E. coli": "soluble"}, {"sequence": "MHVTLVEINVHEDKVDEFIEVFRQNHLGSVQEEGNLRFDVLQDPEVNSRFYIYEAYKDEDTVAFHKTTPHYKTCVAKLESLMTGPRKKRLFNGLMP", "soluble on expression in E. coli": "not soluble"}, {"sequence": "MHLAKERSSVSGTLRVGDRSPRIAEVRTALTRLGLLEGTTKNLEQTKSDTFTDSETLFDEDLALALQGFQQARGIIASGEINEITLKLLREASYSLGARVLSFEPNNIFVGDDVVQLQHQLQELGFYTDRVDGRFGELTYTSLVNYQLNYGLNPDGICGPETIRAFGRLGRRITGGSPHALRERERVRDAGPMLAGKRVVIDPGFGGADKGQVVRGPYGDITEEEIIWDLAGRIEGRMIAAGMETIVSRPRQDSPSLKGRADIANAFGADVMISLQCDKYPNDKANGVASFYFGSEMGSSSLTGEMLSGFIQREISARTDLVNCGNHGRTWDLLRITEMPTVEVVLGYLTNPHDVAILTDPEQRDAIAEAIVVAVKRLYLLDDDDQPTGTYRFSEMLEQGLL", "soluble on expression in E. coli": "not soluble"}, {"sequence": "MLKIIQGALDTRELLKAYQEEACAKNFGAFCVFVGIVRKEDNIQGLSFDIYEALLKTWFEKWHHKAKDLGVVLKMAHSLGDVLIGQSSFLCVSMGKNRKNALELYENFIEDFKHNAPIWKYDLIHNKRIYAKERSHPLKGSGLLALEHHHHHH", "soluble on expression in E. coli": "soluble"}, {"sequence": "MTSLSSPSPIQHTTSSFLNNFMPTPSLINLQQGYRNPDLGSQDLARLDASRHESIQKVSRKLSTYEEEKNLIENELEEIERTGARLLSIVEQKDNFLASRIRRFMEKSKELVGIETLLRLQLNKHNERIKDGLIDISAARGEESYLQKRFKDTDFLRKISARREIDYDKELSEIFTDDQFHRWVMFKKATLQLLQTESSVSYYIRESNAKLDALHLAPRGTSA", "soluble on expression in E. coli": "not soluble"}, {"sequence": "MAMNYLEAFPKELREYYKNLFGKEEANKIMKKLREPVEHYYIRVNTLKISREKLIGELKKEGLKPLRSPYLPEGLYFVREGPNFSDDFEPKLPVVVANKYAAESVYQGAMLYAPGVLKADKNIKEGDEVQIRDPKGLLVGIGIARMDYKEMTEATRGLAVEVTLPKFKLPSLSELKAFEKGYFYPQGLPSMVTARVLEPKEDDVIIDMAAAPGGKTTHIAQLLENKGEIIAIDKSKNRLRKMEENIKRLGVKNVKLVQMDARKLPDLGIKADKILLDAPCTALGVRPKLWEERTLKHIEATARYQRAFIWAAIKSLRRGGVLVYSTCTLSYEENEGNVKFMIRKGMKLEEQSIFIGSPGIGMNKVQRFYPHKHLTQGFFIAKLRKVKDI", "soluble on expression in E. coli": "soluble"}, {"sequence": "MIDEPTGLYNRLRLQEDVSLRLQRDGALTVIAADLLPLALLNTIIRTLGYPFSNDLMLEARDRIRAELPDFTLYKISPTRFGLLLPRQQQEETESVCLRLLRAFESPVVCRGIPIKANVGLGVLPLADDTLDGDQDWLRLVVSAADDARDRGVGWARYNPPLDQAQQRLEHHHHHH", "soluble on expression in E. coli": "soluble"}, {"sequence": "DETIHLERGENLFEIHINKVTFSSEVLQASGDKEPVTFCTYAFYDFELQTTPVVRGLHPEYNFTSQYLVHVNDLFLQYIQKNTITLEVHQAYSTEYETIAACQLKFHEILEKSGRIFCTASLIGTKGDIPNFGTVEYWFRLRV", "soluble on expression in E. coli": "soluble"}, {"sequence": "EVKLQESGPSLVKPSQTLSLTCSVTGDSITSDFWSWIRQFPGNRLEYMGFVQYSGETAYNPSLKSRISITRDTSKNQYYLDLNSVTTEDTAVYYCANWHGDYWGQGTTVTVSSAKTTPPSVYPLAPGSAAQTNSMVTLGCLVKGYFPEPVTVTWNSGSLSSGVHTFPAVLQSDLYTLSSSVTVPSSTWPSETVTCNVAHPASSTKVDKKIVPRDCHHHHHH", "soluble on expression in E. coli": "soluble"}, {"sequence": "MDQKGILRFHEELASLVLKMRSKGIDDVRFFTALEKIPRQQFVSSPWFKSAYDNKVIPIECGEYIERLEEQLLILYALSLKKKHRVLEIGTGSGFCTAFMACLSDRVITVDRYKTLVDLARQKFQTLGIENIVVRQIDGSRIITGFGSFDRILIWPSRSDEPKEFLELLTENGILIQAIGPDEGVQTITRYTKIASRFECLEMFQVRYQPFIEGIAETL", "soluble on expression in E. coli": "not soluble"}, {"sequence": "SLSSTVSYWILNSTRNSIATLQGGRRLYSRYVSNRNKLKWRLFSRVPPTLNSSPCGGFTLCKAYRHTSTEEDDFHLQLSPEQINEVLRAGETTHKILDLESRVPNSVLRFESNQLAANSPVEDRRGVASCLQTNGLMFGIFDGHGGHACAQAVSERLFYYVAVSLMSHQTLEHMEGAMESMKPLLPILHWLKHPGDSIYKDVTSVHLDHLRVYWQELLDLHMEMGLSIEEALMYSFQRLDSDISLEIQAPLEDEVTRNLSLQVAFSGATACMAHVDGIHLHVANAGDCRAILGVQEDNGMWSCLPLTRDHNAWNQAELSRLKREHPESEDRTIIMEDRLLGVLIPCRAFGDVQLKWSKELQRSILERGFNTEALNIYQFTPPHYYTPPYLTAEPEVTYHRLRPQDKFLVLASDGLWDMLSNEDVVRLVVGHLAEADWHKTDLAQRPANLGLMQSLLLQRKASGLHEADQNAATRLIRHAIGNNEYGEMEAERLAAMLTLPEDLARMYRDDITVTVVYFNSESIGAYYKGG", "soluble on expression in E. coli": "not soluble"}, {"sequence": "RPRGPRAVFILPVTAQGEAVLIRQFRYPLRATITEIVAGGVEKGEDLGAAAARELLEEVGGAASEWVPLPGFYPQPSISGVVFYPLLALGVTLGAAQLEDTETIERVVLPLAEVYRMLEAGEIQDGPSSLTLWQARGELTRRGLL", "soluble on expression in E. coli": "soluble"}, {"sequence": "MSKPTLAVALIVKNEARHLDECLQTVHDWVDEIVVLDSGSHDETEQVARRYTEKFYVNAKWPGFGLQRQLAQSYVQSDYVLWLDADERVTPELKQSILQAVAANKPDTLYQFARLSWVFGRFIRHSGWYPDRVLRLYPTQLTRYNDALVHEKVHVEPSMKVETLAGDAIHYTYNDVHHYLVKSAGYAKAWADQRQAKGKKASLSQGIVHAVGCFLKMYLLKRGFLDGKQGFLIALLSAHSTFVKYADLWARDNDEHYKR", "soluble on expression in E. coli": "not soluble"}, {"sequence": "MSIKIGLLGFGTVASGMPFLLKENKDKITAASGTKLEIAKVLVKDDDEKKRLLAAGNDFNFVTNVDDILSDDDIAIVVELMGRIEPAKTFITKALEAGKHVVSANKDLIATHGKELIRLAQDKGVAFYYEAAVAGGIPILRTLANSLTSDKVTRILGVLNGTSNFMMTKMVDEGWTYEAALKKAQELGYAESDPTNDVEGIDAAYKAVILSQFGFGMTIDFDQVVHQGISSITPDDVAMAQQLGYVIKLVGSVEETPSGIFAEVSPTFLPKSHPLASVNDVMNAVFVESIGIGESMYYGPGAGQKPTATSVVADVIRIARRIKDGNVGKCFNEFIRETKIAHPDDVKSHYYFAINTADEKGKMLRLAEIFNSEDISFEQVLQQKANGEQARVVIITHSLSKSQLVNVTEKLQAVADFKLLNTFKVLGE", "soluble on expression in E. coli": "not soluble"}, {"sequence": "MLEIEIVYGLPDRQVLKTMQLAEGTTVRAAALQSGLDGIFEDLNLHSAPLGIFGKAVKDDTPLRDGDRIEVYRPLLIDPKEARRKRVQNQEE", "soluble on expression in E. coli": "not soluble"}, {"sequence": "PSLSKEAALVHEALVARGLETPLRPPVHEMDNETRKSLIAGHMTEIMQLLNLDLADDSLMETPHRIAKMYVDEIFSGLDYANFPKITLIENKMKVDEMVTVRDITLTSTSEHHFVTIDGKATVAYIPKDSVIGLSKINRIVQFFAQRPQVQERLTQQILIALQTLLGTNNVAVSIDAVHYCVKARGIRDATSATTTTSLGGLFKSSQNTRHEFLRAVRHHN", "soluble on expression in E. coli": "soluble"}]}]}
